Test [1] deals with Human PD-L1 mouse Fc fusion protein (human, UniProt Q9NZQ7 19-238). The test is described as follows: ELISA.
Test [2] concerns the target PD-L1 on H1975 human lung adenocarcinoma cells (human (on H1975 cells), UniProt Q9NZQ7 19-290). The test is described as follows: ELISA.

“And” between values parts separate entries of the source, which are not always exact repeats. Identical values can stand only once.

PD-L1 on H1975 human lung adenocarcinoma cells, sequence (Q9NZQ7 19-290): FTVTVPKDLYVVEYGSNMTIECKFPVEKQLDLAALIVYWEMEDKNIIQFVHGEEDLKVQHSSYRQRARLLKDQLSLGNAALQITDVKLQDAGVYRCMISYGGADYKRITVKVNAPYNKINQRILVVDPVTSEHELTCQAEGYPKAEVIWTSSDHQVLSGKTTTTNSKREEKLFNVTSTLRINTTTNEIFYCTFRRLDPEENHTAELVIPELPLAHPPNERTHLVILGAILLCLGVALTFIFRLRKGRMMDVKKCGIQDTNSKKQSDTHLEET
Human PD-L1 mouse Fc fusion protein, sequence (Q9NZQ7 19-238): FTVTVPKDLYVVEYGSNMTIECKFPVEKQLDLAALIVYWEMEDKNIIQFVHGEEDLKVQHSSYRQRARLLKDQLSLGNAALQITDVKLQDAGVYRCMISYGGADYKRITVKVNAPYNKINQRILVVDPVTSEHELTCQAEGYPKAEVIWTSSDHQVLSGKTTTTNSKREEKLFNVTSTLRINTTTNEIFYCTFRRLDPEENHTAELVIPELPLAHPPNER

B1: mutPD-1Ig (Fc fusion, human, UniProt Q15116 21-161, looked up)
chain: PGWFLDSPDRPWNPPTFSPALLVVTEGDNATFTCSFSNTSESFVLNWYRMSPSNQTDKLAAFPEDRSQPGQDCRFRVTQLPNGRDFHMSVVRARRNDSGTYLCSAISLAPYIQIKESLRAELRVTERRAEVPTAHPSPSPR
For the molecule B1, the EC50 in test [1] was 0.02 nM; in test [2], ~0.2 nM and 0.1 nM and 0.13 nM.

These data come from article PMC10621011 (ACS Omega, 2023).
